The supplement of paper PMC6757056
± gives the standard deviation of the averaged measurements.

B1: library; a variant is named by its letters at N, in order (parent)
chain: GCUGUCACCGGUGCUUGGUACGUUAUAUUCAGCCGGUCUGAUGAGUCUNNNNNNAGACGAAACAGC

Columns and labels:
[1] = variants of: B1; test: normalized RNA/DNA level without ligand (relative to sTRSVctl = 100) (log10 (% of sTRSVctl)); HEK293T overexpressing SLC46A1; higher = less ribozyme self-cleavage, higher mRNA level; conditions: without (6R,S)-folinic acid; ligand present: no
Method in brief: (§1)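 Library plasmids encoding reporter-linked ribozyme switches (mCherry, or eGFP for some folinic acid experiments) were transfected into HEK293T at 4 µg per 6-well well. Ligand, when used, was added 1 h before transfection. Total RNA was extracted with EDTA 72 h later, then reverse-transcribed, amplified, barcoded and sequenced. RNA level was RNA reads over DNA reads, divided by a spiked-in non-cleaving control (or the top 25 sequences), ×100, log10; only sequences with ≥100 DNA reads were kept.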

[2] = variants of: B1; test: normalized RNA/DNA level with ligand (relative to sTRSVctl = 100) (log10 (% of sTRSVctl)); HEK293T overexpressing SLC46A1; ligand concentration (+) RNA-Seq: 6 mM; higher = less ribozyme self-cleavage, higher mRNA level; conditions: with (6R,S)-folinic acid; ligand present: yes
Method in brief: as §1

Variant | normalized RNA/DNA level without ligand (log10) [1] | normalized RNA/DNA level with ligand (log10) [2]
CAUCUG | 2.03 ± 0.032 | 2.02 ± 0.025
CAUCUU | 2.034 ± 0.0024 | 2 ± 0.038
CAUCUA | 2.05 ± 0.022 | 2.074 ± 0.012
AAUGAU | 1.937 ± 0.012 | 2 ± 0.051
AAUGAC | 1.9695 ± 0.0006 | 1.99 ± 0.037
CCAAGA | 2.0052 ± 0.00077 | 2.038 ± 0.0056
CCAAGC | 2.098 ± 0.0093 | 2.0623 ± 0.001
UCAACG | 1.909 ± 0.0028 | 2 ± 0.034
UCAACA | 1.987 ± 0.0049 | 2.017 ± 0.018
GAUUCG | 1.978 ± 0.0021 | 2.01 ± 0.042
GAUUCC | 2.064 ± 0.0098 | 2.043 ± 0.019
CAUUCU | 2.022 ± 0.0089 | 2.01 ± 0.056
CAUUCC | 2.06 ± 0.033 | 2.02 ± 0.06
CAUUCG | 2.037 ± 0.0077 | 2 ± 0.032
CAUUCA | 1.96 ± 0.02 | 1.9724 ± 0.001
CAUGAG | 1.942 ± 0.0092 | 2.006 ± 0.0049
CAUGAU | 1.97 ± 0.02 | 1.997 ± 0.012
CAUGAC | 1.98 ± 0.024 | 2 ± 0.012
UAUGCA | 1.95 ± 0.027 | 2.01 ± 0.021
UAUGCC | 1.995 ± 0.0025 | 1.99 ± 0.04
CAUGGU | 1.903 ± 0.019 | 1.95 ± 0.037
CAUGGA | 2.0099 ± 0.0018 | 2.04 ± 0.025
CAUGGC | 2.04 ± 0.022 | 2.03 ± 0.03
CAUGGG | 1.91 ± 0.015 | 2.008 ± 0.013

Variant | normalized RNA/DNA level without ligand (log10) [1] | normalized RNA/DNA level with ligand (log10) [2]
UAUUAU | 1.931 ± 0.012 | 1.985 ± 0.01
AAUGGC | 1.997 ± 0.012 | 2.029 ± 0.019
AAUGGA | 1.925 ± 0.0083 | 1.99 ± 0.033
GCAAGC | 2.011 ± 0.0087 | 2.023 ± 0.014
UAUCGU | 1.947 ± 0.0084 | 2.01 ± 0.038
AAUUGC | 2.006 ± 0.0074 | 2.01 ± 0.039
CAUUUA | 1.97 ± 0.013 | 1.999 ± 0.013
CAUUUC | 2.036 ± 0.0064 | 2 ± 0.037
CCAAAU | 1.963 ± 0.013 | 2 ± 0.035
CCAAAC | 2.017 ± 0.015 | 2.03 ± 0.044
CCAAAG | 1.899 ± 0.0025 | 1.99 ± 0.025
GAUUGC | 1.974 ± 0.015 | 2 ± 0.036
GAUUGG | 1.973 ± 0.017 | 2.028 ± 0.019
CAUGUC | 2.03 ± 0.027 | 1.997 ± 0.0052
CAUGUA | 1.947 ± 0.0027 | 1.99 ± 0.047
CCAACC | 2.027 ± 0.016 | 1.99 ± 0.042
CCAACU | 2.049 ± 0.0064 | 2.053 ± 0.02
CCAACA | 2.033 ± 0.011 | 2 ± 0.047
CCAACG | 2.0184 ± 0.002 | 2.01 ± 0.041
AAUUAU | 1.983 ± 0.013 | 2.03 ± 0.038
AAUUAG | 1.94 ± 0.0025 | 2.01 ± 0.027
AAUUAA | 1.95 ± 0.021 | 1.98 ± 0.025
AAUUAC | 1.982 ± 0.0057 | 2.01 ± 0.026
AAUUCU | 2.0312 ± 0.0016 | 2.03 ± 0.027

Variant | normalized RNA/DNA level without ligand (log10) [1] | normalized RNA/DNA level with ligand (log10) [2]
AAUUCG | 1.974 ± 0.012 | 2.03 ± 0.038
AAUUCC | 2.059 ± 0.018 | 2.036 ± 0.019
AAUUCA | 1.9759 ± 0.00044 | 2 ± 0.041
CAUGCC | 2.058 ± 0.0046 | 2.029 ± 0.014
CAUGCU | 2.051 ± 0.019 | 2.05 ± 0.064
CAUGCA | 1.996 ± 0.0096 | 2.01 ± 0.022
CAUGCG | 2.01 ± 0.019 | 2.01 ± 0.032
AAUGUG | 1.81 ± 0.0053 | 1.999 ± 0.013
AAUGUU | 1.972 ± 0.0068 | 1.993 ± 0.0074
AAUGUA | 1.9489 ± 1.8e-05 | 2.01 ± 0.04
GAUUAC | 1.987 ± 0.014 | 2.017 ± 0.017
CAUUGA | 2.019 ± 0.0027 | 2.01 ± 0.055
CAUUGU | 2.012 ± 0.0069 | 2.02 ± 0.064
CAUUGC | 2.021 ± 0.0021 | 1.99 ± 0.019
CAUUGG | 1.955 ± 0.011 | 2.01 ± 0.026
ACAAAU | 1.952 ± 0.015 | 2.01 ± 0.053
ACAAAA | 1.97 ± 0.0049 | 1.99 ± 0.033
CAUCGU | 2.05 ± 0.021 | 2.02 ± 0.025
GAUCUA | 2.03 ± 0.024 | 2.027 ± 0.02
GAUCUG | 2.008 ± 0.013 | 2.032 ± 0.0047
GAUCUU | 2.031 ± 0.0082 | 2.02 ± 0.083
GAUCUC | 2.0583 ± 0.00073 | 1.99 ± 0.035
GAUGCU | 1.992 ± 0.0031 | 2 ± 0.039
GAUGCC | 2.014 ± 0.0064 | 2.023 ± 0.013

Variant | normalized RNA/DNA level without ligand (log10) [1] | normalized RNA/DNA level with ligand (log10) [2]
UAUUUA | 1.98 ± 0.024 | 2.01 ± 0.021
CAUUAG | 1.94 ± 0.037 | 1.985 ± 0.0055
CAUUAA | 1.953 ± 0.0081 | 1.976 ± 0.014
UAUGGU | 1.8765 ± 0.0006 | 1.98 ± 0.026
UAUUCG | 1.735 ± 0.0046 | 1.94 ± 0.063
UAUUCA | 2.019 ± 0.0067 | 2.05 ± 0.037
UAUUCU | 1.99 ± 0.039 | 2.04 ± 0.048
UAUUCC | 1.972 ± 0.0012 | 1.986 ± 0.0039
AAUGCC | 2.026 ± 0.012 | 2.03 ± 0.03
AAUGCU | 2.022 ± 0.01 | 2.02 ± 0.045
UCAAAU | 1.96 ± 0.017 | 2.004 ± 0.017
UCAAAG | 1.817 ± 0.0038 | 1.98 ± 0.032
AAUUUC | 2.031 ± 0.0025 | 2.01 ± 0.049
AAUUUA | 1.966 ± 0.012 | 1.99 ± 0.02
ACAAGA | 1.974 ± 0.0046 | 2.02 ± 0.031
ACAACC | 2.035 ± 0.0087 | 2.03 ± 0.025
ACAACG | 1.991 ± 0.019 | 2.06 ± 0.021
ACAACU | 2.014 ± 0.0094 | 2.03 ± 0.045
AAUCGU | 1.99 ± 0.0073 | 2.013 ± 0.0078
GAUGGA | 1.987 ± 0.0081 | 2.02 ± 0.043
GAUGGG | 1.941 ± 0.0096 | 2.043 ± 0.019
GCAACA | 2.058 ± 0.0047 | 2.05 ± 0.038
GCAACC | 2.033 ± 0.0054 | 2.019 ± 0.019
GCAACG | 1.982 ± 0.0082 | 2.014 ± 0.02

Variant | normalized RNA/DNA level without ligand (log10) [1] | normalized RNA/DNA level with ligand (log10) [2]
UAUGUU | 1.95 ± 0.022 | 2 ± 0.023
UAUGUA | 1.8903 ± 0.0016 | 1.99 ± 0.057
UAUGUC | 2.05 ± 0.033 | 2.01 ± 0.049
AAUCUC | 2.068 ± 0.011 | 2.04 ± 0.034
AAUCUG | 1.958 ± 0.0061 | 2.04 ± 0.048
GAUUUU | 2.011 ± 0.0062 | 2.026 ± 0.0072
GAUUUC | 2.055 ± 0.017 | 2 ± 0.03
GAUUUG | 1.95 ± 0.023 | 2.03 ± 0.047
UAUGAA | 1.873 ± 0.016 | 1.98 ± 0.023
GCAAAU | 2 ± 0.022 | 2.03 ± 0.03
GCAAAG | 1.95 ± 0.0068 | 2.018 ± 0.012
GCAAAC | 1.974 ± 0.0046 | 2.02 ± 0.023
UAUCUU | 2.007 ± 0.005 | 2.05 ± 0.021
UAUCUC | 2.053 ± 0.018 | 2.03 ± 0.027
UAUCUG | 1.878 ± 0.017 | 2 ± 0.023
UAUCUA | 1.987 ± 0.0076 | 2.03 ± 0.028
UAUUGC | 1.941 ± 0.011 | 1.96 ± 0.034
UAUUGU | 1.888 ± 0.012 | 2.005 ± 0.017
GAUCGU | 2.02 ± 9.8e-05 | 2.02 ± 0.052
GAUCGG | 2.084 ± 0.015 | 2.07 ± 0.04
